From the supplement of paper PMC11246515
± gives the standard deviation of the averaged measurements.

Test: total protein half-life in vivo (active degradation + dilution); higher = more stable protein
[1] = E. coli NCM3722 delta-clpP, growth: N-lim chemostat, doubling time 6 h
[2] = E. coli NCM3722 delta-clpP delta-lon delta-hslV, growth: N-lim chemostat, doubling time 6 h
[3] = E. coli NCM3722 delta-hslV, growth: N-lim chemostat, doubling time 6 h
[4] = E. coli NCM3722 delta-lon, growth: N-lim chemostat, doubling time 6 h
[5] = E. coli NCM3722 delta-smpB, growth: N-lim chemostat, doubling time 6 h
[6] = wild type E. coli NCM3722, growth: C-lim chemostat, doubling time 3 h
[7] = wild type E. coli NCM3722, growth: C-lim chemostat, doubling time 6 h
[8] = wild type E. coli NCM3722, growth: C-lim chemostat, doubling time 12 h
[9] = wild type E. coli NCM3722, growth: N-lim chemostat, doubling time 6 h
[10] = wild type E. coli NCM3722, growth: N-lim chemostat, doubling time 12 h
[11] = wild type E. coli NCM3722, growth: P-lim chemostat, doubling time 6 h
[12] = wild type E. coli NCM3722, growth: P-lim chemostat, doubling time 12 h

Sequence	total protein half-life in vivo [1]	total protein half-life in vivo [2]	total protein half-life in vivo [3]	total protein half-life in vivo [4]	total protein half-life in vivo [5]	total protein half-life in vivo [6]	total protein half-life in vivo [7]	total protein half-life in vivo [8]	total protein half-life in vivo [9]	total protein half-life in vivo [10]	total protein half-life in vivo [11]	total protein half-life in vivo [12]
MTNITLQKQHRTLWHFIPGLALSAVITGVALWGGSIPAVAGAGFSALTLAILLGMVLGNTIYPHIWKSCDGGVLFAKQYLLRLGIILYGFRLTFSQIADVGISGIIIDVLTLSSTFLLACFLGQKVFGLDKHTSWLIGAGSSICGAAAVLATEPVVKAEASKVTVAVATVVIFGTVAIFLYPAIYPLMSQWFSPETFGIYIGSTVHEVAQVVAAGHAISPDAENAAVISKMLRVMMLAPFLILLAARVKQLSGANSGEKSKITIPWFAILFIVVAIFNSFHLLPQSVVNMLVTLDTFLLAMAMAALGLTTHVSALKKAGAKPLLMALVLFAWLIVGGGAINYVIQSVIA	2.86 h											
MTNLNYQQTHFVMSAPDIRHLPSDTGIEVAFAGRSNAGKSSALNTLTNQKSLARTSKTPGRTQLINLFEVADGKRLVDLPGYGYAEVPEEMKRKWQRALGEYLEKRQSLQGLVVLMDIRHPLKDLDQQMIEWAVDSNIAVLVLLTKADKLASGARKAQLNMVREAVLAFNGDVQVETFSSLKKQGVDKLRQKLDTWFSEMQPVEETQDGE [P0A6P7]	6.45 ± 1.6 h	5.33 ± 0.22 h	5.05 ± 0.074 h	5.83 ± 0.38 h	5.19 ± 0.42 h	2.924 ± 0.022 h	5.58 ± 0.19 h	11.2 ± 0.46 h	5.08 ± 0.32 h	9.45 ± 0.2 h	5.59 ± 0.11 h	11.4 ± 0.91 h
MTNLPKFSTALLHPRYWLTWLGIGVLWLVVQLPYPVIYRLGCGLGKLALRFMKRRAKIVHRNLELCFPEMSEQERRKMVVKNFESVGMGLMETGMAWFWPDRRIARWTEVIGMEHIRDVQAQKRGILLVGIHFLTLELGARQFGMQEPGIGVYRPNDNPLIDWLQTWGRLRSNKSMLDRKDLKGMIKALKKGEVVWYAPDHDYGPRSSVFVPLFAVEQAATTTGTWMLARMSGACLVPFVPRRKPDGKGYQLIMLPPECSPPLDDAETTAAWMNKVVEKCIMMAPEQYMWLHRRFKTRPEGVPSRY [P0ACV0]	5.84 h	6.85 h	6.63 h		5.81 h		7.93 h					
MTNNPLIPQSKLPQLGTTIFTQMSALAQQHQAINLSQGFPDFDGPRYLQERLAHHVAQGANQYAPMTGVQALREAIAQKTERLYGYQPDADSDITVTAGATEALYAAITALVRNGDEVICFDPSYDSYAPAIALSGGIVKRMALQPPHFRVDWQEFAALLSERTRLVILNTPHNPSATVWQQADFAALWQAIAGHEIFVISDEVYEHINFSQQGHASVLAHPQLRERAVAVSSFGKTYHMTGWKVGYCVAPAPISAEIRKVHQYLTFSVNTPAQLALADMLRAEPEHYLALPDFYRQKRDILVNALNESRLEILPCEGTYFLLVDYSAVSTLDDVEFCQWLTQEHGVAAIPLSVFCADPFPHKLIRLCFAKKESTLLAAAERLRQL	1.93 ± 0.071 h	2.63 ± 0.15 h	1.69 ± 0.11 h	2.09 h	2.01 ± 0.052 h	2.48 ± 0.11 h	3.9 ± 0.38 h	5.92 ± 0.72 h	1.95 h		5.33 ± 1.2 h	8.16 ± 1 h
MTNQPTEIAIVGGGMVGGALALGLAQHGFAVTVIEHAEPAPFVADSQPDVRISAISAASVSLLKGLGVWDAVQAMRCHPYRRLETWEWETAHVVFDAAELKLPLLGYMVENTVLQQALWQALEAHPKVTLRVPGSLIALHRHDDLQELELKGGEVIRAKLVIGADGANSQVRQMAGIGVHAWQYAQSCMLISVQCENDPGDSTWQQFTPDGPRAFLPLFDNWASLVWYDSPARIRQLQNMNMAQLQAEIAKHFPSRLGYVTPLAAGAFPLTRRHALQYVQPGLALVGDAAHTIHPLAGQGVNLGYRDVDALIDVLVNARSYGEAWASYPVLKRYQMRRMADNFIMQSGMDLFYAGFSNNLPPLRFMRNLGLMAAERAGVLKRQALKYALGL	3.97 ± 0.055 h	4.44 ± 0.19 h	4.09 ± 0.076 h	3.34 ± 0.071 h	3.93 ± 0.044 h	2.59 ± 0.043 h	4.352 ± 0.0069 h	7.53 ± 0.7 h	3.808 ± 0.035 h	7.16 ± 0.92 h	4.49 ± 0.16 h	7.66 ± 0.16 h
MTNRLVLSGTVCRAPLRKVSPSGIPHCQFVLEHRSVQEEAGFHRQAWCQMPVIVSGHENQAITHSITVGSRITVQGFISCHKAKNGLSKMVLHAEQIELIDSGD					4.72 h	2.97 h			5.76 h			15.6 h
MTNTWNRLALLIFAVLSLLVAGELQAGVVVGGTRFIFPADRESISILLTNTSQESWLINSKINRPTRWAGGEASTVPAPLLAAPPLILLKPGTTGTLRLLRTESDILPVDRETLFELSIASVPSGKVENQSVKVAMRSVFKLFWRPEGLPGDPLEAYQQLRWTRNSQGVQLTNPTPYYINLIQVSVNGKALSNVGVVPPKSQRQTSWCQAIAPCHVAWRAINDYGGLSAKKEQNLP						2.87 h				3.48 h		
